From patent US20160136234A1 come the findings set out here.

Targets include p70S6K (h) (human) (UniProt P23443); Src(T341M) (h) (human) (UniProt P12931); CaMKIIβ (h) (human) (UniProt Q13554); MARK1 (h) (human) (UniProt Q9P0L2); MuSK (h) (human) (UniProt O15146); GSK3β (h) (human) (UniProt P49841).
Holding throughout (test): cell-based or functional assay
In the next assay the target is T1, MST1 (h) (human) (UniProt Q13043).
T1 sequence (looked up): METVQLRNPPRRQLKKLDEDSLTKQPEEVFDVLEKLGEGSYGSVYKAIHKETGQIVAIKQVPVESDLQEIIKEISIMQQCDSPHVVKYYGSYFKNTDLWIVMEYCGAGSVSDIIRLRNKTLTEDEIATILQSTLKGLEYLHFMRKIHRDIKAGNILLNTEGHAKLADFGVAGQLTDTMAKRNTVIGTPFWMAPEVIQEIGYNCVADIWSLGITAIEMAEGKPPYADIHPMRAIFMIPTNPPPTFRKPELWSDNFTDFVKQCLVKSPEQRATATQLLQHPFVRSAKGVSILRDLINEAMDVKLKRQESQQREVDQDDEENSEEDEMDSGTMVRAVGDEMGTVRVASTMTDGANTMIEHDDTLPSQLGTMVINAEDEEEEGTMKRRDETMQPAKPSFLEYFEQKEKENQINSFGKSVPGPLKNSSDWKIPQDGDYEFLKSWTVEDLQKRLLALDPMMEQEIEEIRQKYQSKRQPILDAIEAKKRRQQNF

For a further assay, the target named is T2, PhKγ2 (h) (human) (UniProt P15735).
T2 sequence (looked up): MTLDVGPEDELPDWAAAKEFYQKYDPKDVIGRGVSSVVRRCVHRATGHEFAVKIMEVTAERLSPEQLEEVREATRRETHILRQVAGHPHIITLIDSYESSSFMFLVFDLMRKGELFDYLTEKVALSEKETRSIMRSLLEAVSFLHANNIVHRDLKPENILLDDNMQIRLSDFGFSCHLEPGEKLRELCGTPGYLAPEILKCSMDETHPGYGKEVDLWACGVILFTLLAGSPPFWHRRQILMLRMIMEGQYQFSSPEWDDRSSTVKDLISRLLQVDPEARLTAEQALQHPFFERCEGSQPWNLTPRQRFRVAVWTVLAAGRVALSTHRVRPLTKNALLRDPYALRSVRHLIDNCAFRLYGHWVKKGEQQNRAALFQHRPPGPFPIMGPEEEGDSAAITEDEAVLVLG

In assay [1] the target is Mitogen-Activated Protein Kinase-Activated Protein Kinase 3 (human) (UniProt Q16644).
The next assay deals with T3, LKB1 (h) (human) (UniProt Q15831).
T3 sequence (looked up): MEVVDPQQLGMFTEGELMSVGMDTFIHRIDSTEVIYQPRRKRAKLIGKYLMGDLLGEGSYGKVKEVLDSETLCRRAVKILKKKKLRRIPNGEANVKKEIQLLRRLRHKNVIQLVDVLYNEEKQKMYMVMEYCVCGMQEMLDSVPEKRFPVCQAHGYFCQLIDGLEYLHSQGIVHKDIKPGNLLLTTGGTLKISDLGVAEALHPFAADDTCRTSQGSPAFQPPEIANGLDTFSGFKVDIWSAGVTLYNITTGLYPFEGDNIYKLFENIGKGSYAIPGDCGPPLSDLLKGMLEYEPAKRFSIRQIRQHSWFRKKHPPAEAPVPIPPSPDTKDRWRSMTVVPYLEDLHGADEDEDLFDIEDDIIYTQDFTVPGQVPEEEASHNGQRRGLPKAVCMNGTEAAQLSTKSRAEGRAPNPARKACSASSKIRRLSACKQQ

The target of a further assay is T4, NEK3 (h) (human) (UniProt P51956).
T4 sequence (looked up): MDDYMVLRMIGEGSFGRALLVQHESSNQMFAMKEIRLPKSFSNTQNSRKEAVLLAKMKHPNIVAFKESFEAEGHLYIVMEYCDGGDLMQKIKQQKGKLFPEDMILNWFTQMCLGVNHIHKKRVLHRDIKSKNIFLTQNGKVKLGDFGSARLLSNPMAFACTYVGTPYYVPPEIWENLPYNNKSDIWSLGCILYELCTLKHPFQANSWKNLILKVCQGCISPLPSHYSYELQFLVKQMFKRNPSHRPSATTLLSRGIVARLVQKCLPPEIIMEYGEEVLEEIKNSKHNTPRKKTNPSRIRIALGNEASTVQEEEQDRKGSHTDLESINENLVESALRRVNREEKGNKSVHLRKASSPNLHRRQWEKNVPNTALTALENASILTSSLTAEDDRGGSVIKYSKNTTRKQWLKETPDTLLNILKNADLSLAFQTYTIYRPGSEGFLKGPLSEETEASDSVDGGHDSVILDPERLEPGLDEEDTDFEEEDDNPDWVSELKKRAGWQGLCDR

A further assay has as its target T5, Txk (h) (human) (UniProt P42681).
T5 sequence (looked up): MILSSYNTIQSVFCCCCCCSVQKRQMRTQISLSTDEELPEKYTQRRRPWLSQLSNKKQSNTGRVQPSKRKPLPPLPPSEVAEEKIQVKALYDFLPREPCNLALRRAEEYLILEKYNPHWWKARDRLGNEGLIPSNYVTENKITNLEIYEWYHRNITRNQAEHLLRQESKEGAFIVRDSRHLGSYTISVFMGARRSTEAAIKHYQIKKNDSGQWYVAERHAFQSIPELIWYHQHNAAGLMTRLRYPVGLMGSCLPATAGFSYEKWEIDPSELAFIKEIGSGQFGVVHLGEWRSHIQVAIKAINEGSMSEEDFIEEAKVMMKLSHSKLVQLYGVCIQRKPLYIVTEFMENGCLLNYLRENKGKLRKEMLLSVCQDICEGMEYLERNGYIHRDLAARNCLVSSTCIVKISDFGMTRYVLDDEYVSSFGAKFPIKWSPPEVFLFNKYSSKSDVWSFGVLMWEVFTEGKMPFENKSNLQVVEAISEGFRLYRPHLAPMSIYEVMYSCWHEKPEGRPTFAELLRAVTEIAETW

Sequence of CaMKIIβ (h) (human) (Q13554 whole entry): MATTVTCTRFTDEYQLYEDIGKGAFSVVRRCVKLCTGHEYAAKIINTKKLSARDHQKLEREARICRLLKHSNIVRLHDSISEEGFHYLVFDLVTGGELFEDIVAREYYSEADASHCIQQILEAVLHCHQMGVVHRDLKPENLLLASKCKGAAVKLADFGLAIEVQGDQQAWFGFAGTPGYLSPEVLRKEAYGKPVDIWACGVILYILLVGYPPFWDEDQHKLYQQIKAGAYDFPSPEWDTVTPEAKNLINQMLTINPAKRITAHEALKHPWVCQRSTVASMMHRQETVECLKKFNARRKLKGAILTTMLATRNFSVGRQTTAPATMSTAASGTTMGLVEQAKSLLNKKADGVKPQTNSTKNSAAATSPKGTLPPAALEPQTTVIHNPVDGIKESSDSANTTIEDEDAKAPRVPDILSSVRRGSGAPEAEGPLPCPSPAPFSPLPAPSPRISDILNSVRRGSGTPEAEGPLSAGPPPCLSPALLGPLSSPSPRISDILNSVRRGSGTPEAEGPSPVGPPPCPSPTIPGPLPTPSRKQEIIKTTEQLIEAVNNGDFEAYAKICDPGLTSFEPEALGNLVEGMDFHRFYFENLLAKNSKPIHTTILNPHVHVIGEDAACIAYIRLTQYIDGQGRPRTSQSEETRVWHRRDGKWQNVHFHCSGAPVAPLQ

For MMI-0300 (peptide), the % activity at 100 µM came out at 14% in the assay with MST1 (h) (human); 35% with p70S6K (h) (human); 70% with Src(T341M) (h) (human); 2% with CaMKIIβ (h) (human); 46% with PhKγ2 (h) (human); 132% with MARK1 (h) (human). Also, the % activity at 100 µM in [1] is 3%; with LKB1 (h) (human), 101%; with MuSK (h) (human), 93%; with NEK3 (h) (human) it was 92%; with GSK3β (h) (human) it was 205%; with Txk (h) (human), 48%.
